Reference: the supplement of paper PMC5998384

What was measured:
[1] = system: HeLa Kyoto; experiment: thermal stability score vs G1/S (z-score of summed log2 fold changes over temperatures); higher = more thermally stable than in G1/S
[2] = system: HeLa Kyoto; experiment: melting temperature (median over replicates), in situ; higher = more thermally stable
[3] = system: HeLa Kyoto; experiment: solubility in G1/S (NP-40 vs SDS abundance) (log2 ratio); higher = more soluble; conditions: cell cycle stage: G1/S
[4] = system: HeLa Kyoto; experiment: solubility change mitosis vs G1/S (difference of NP-40 vs SDS log2 ratios) (log2 ratio difference); higher = more soluble in mitosis
[5] = cell cycle stage: early G1 (4.5 h after nocodazole release)
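For melting temperature (median over replicates), in situ in this document: HeLa Kyoto cells synchronized by double thymidine or nocodazole block, proteins quantified by TMT10plex mass spectrometry, three independent biological replicates.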
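For solubility change mitosis vs G1/S (difference of NP-40 vs SDS log2 ratios) in this document: synchronized HeLa Kyoto cells (double thymidine block for G1/S, nocodazole release for mitosis), protein amounts in NP-40 versus SDS lysates quantified by mass spectrometry, three biological replicates.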
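For solubility in G1/S (NP-40 vs SDS abundance) in this document: HeLa Kyoto cells arrested at G1/S by double thymidine block, proteins quantified by TMT10plex mass spectrometry in mild NP-40 versus SDS extracts, three biological replicates.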
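For thermal stability score vs G1/S (z-score of summed log2 fold changes over temperatures) in this document: synchronized HeLa Kyoto cells, proteins quantified by TMT10plex mass spectrometry, three biological replicates, mitosis taken 0.5 h after nocodazole release, G1/S directly after double thymidine block.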

Substance | thermal stability score [1, 5] | thermal stability score ([1]; cell cycle stage: mitosis) | melting temperature ([2]; cell cycle stage: G1/S) [°C] | melting temperature ([2]; cell cycle stage: mitosis) [°C] | solubility in G1/S (log2) [3] | solubility change mitosis (log2) [4]
MAAVVAATRWWQLLLVLSAAGMGASGAPQPPNILLLLMDDMGWGDLGVYGEPSRETPNLDRMAAEGLLFPNFYSANPLCSPSRAALLTGRLPIRNGFYTTNAHARNAYTPQEIVGGIPDSEQLLPELLKKAGYVSKIVGKWHLGHRPQFHPLKHGFDEWFGSPNCHFGPYDNKARPNIPVYRDWEMVGRYYEEFPINLKTGEANLTQIYLQEALDFIKRQARHHPFFLYWAVDATHAPVYASKPFLGTSQRGRYGDAVREIDDSIGKILELLQDLHVADNTFVFFTSDNGAALISAPEQGGSNGPFLCGKQTTFEGGMREPALAWWPGHVTAGQVSHQLGSIMDLFTTSLALAGLTPPSDRAIDGLNLLPTLLQGRLMDRPIFYYRGDTLMAATLGQHKAHFWTWTNSWENFRQGIDFCPGQNVSGVTTHNLEDHTKLPLIFHLGRDPGERFPLSFASAEYQEALSRITSVVQQHQEALVPAQPQLNVCNWAVMNWAPPGCEKLGKCLTPPESIPKKCLWSH [GALNS] | -4.28 | -1.14 | 55.5 | 57.8 | 0.789 | -0.0581
MPFAEDKTYKYICRNFSNFCNVDVVEILPYLPCLTARDQDRLRATCTLSGNRDTLWHLFNTLQRRPGWVEYFIAALRGCELVDLADEVASVYQSYQPRTSDRPPDPLEPPSLPAERPGPPTPAAAHSIPYNSCREKEPSYPMPVQETQAPESPGENSEQALQTLSPRAIPRNPDGGPLESSSDLAALSPLTSSGHQEQDTELGSTHTAGATSSLTPSRGPVSPSVSFQPLARSTPRASRLPGPTGSVVSTGTSFSSSSPGLASAGAAEGKQGAESDQAEPIICSSGAEAPANSLPSKVPTTLMPVNTVALKVPANPASVSTVPSKLPTSSKPPGAVPSNALTNPAPSKLPINSTRAGMVPSKVPTSMVLTKVSASTVPTDGSSRNEETPAAPTPAGATGGSSAWLDSSSENRGLGSELSKPGVLASQVDSPFSGCFEDLAISASTSLGMGPCHGPEENEYKSEGTFGIHVAENPSIQLLEGNPGPPADPDGGPRPQADRKFQEREVPCHRPSPGALWLQVAVTGVLVVTLLVVLYRRRLH [MAVS] | -0.897 | -0.611 | 54.2 | 54.4 | 0.462 | -0.239
CLTCL1 | 0.282 | 0.64 | 50.8 | 49.8 | -0.305 | -0.0594
MEYMAESTDRSPGHILCCECGVPISPNPANICVACLRSKVDISQGIPKQVSISFCKQCQRYFQPPGTWIQCALESRELLALCLKKIKAPLSKVRLVDAGFVWTEPHSKRLKVKLTIQKEVMNGAILQQVFVVDYVVQSQMCGDCHRVEAKDFWKAVIQVRQKTLHKKTFYYLEQLILKYGMHQNTLRIKEIHDGLDFYYSSKQHAQKMVEFLQCTVPCRYKASQRLISQDIHSNTYNYKSTFSVEIVPICKDNVVCLSPKLAQSLGNMNQICVCIRVTSAIHLIDPNTLQVADIDGSTFWSHPFNSLCHPKQLEEFIVMECSIVQDIKRAAGAGMISKKHTLGEVWVQKTSEMNTDKQYFCRTHLGHLLNPGDLVLGFDLANCNLNDEHVNKMNSDRVPDVVLIKKSYDRTKRQRRRNWKLKELARERENMDTDDERQYQDFLEDLEEDEAIRKNVNIYRDSAIPVESDTDDEGAPRISLAEMLEDLHISQDATGEEGASMLT [NMD3] | -1.14 | -1.18 | 52.2 | 52.2 | -0.119 | -0.0927
MAAVDIRDNLLGISWVDSSWIPILNSGSVLDYFSERSNPFYDRTCNNEVVKMQRLTLEHLNQMVGIEYILLHAQEPILFIIRKQQRQSPAQVIPLADYYIIAGVIYQAPDLGSVINSRVLTAVHGIQSAFDEAMSYCRYHPSKGYWWHFKDHEEQDKVRPKAKRKEEPSSIFQRQRVDALLLDLRQKFPPKFVQLKPGEKPVPVDQTKKEAEPIPETVKPEEKETTKNVQQTVSAKGPPEKRMRLQ [MED6] | -0.569 | -0.431 | 47.9 | 50 | 0.404 | 0.222
MEGGLADGEPDRTSLLGDSKDVLGPSTVVANSDESQLLTPGKMSQRQGKEAYPTPTKDLHQPSLSPASPHSQGFERGKEDISQNKDESSLSMSKSKSESKLYNGSEKDSSTSSKLTKKESLKVQKKNYREEKKRATKELLSTITDPSVIVMADWLKIRGTLKSWTKLWCVLKPGVLLIYKTQKNGQWVGTVLLNACEIIERPSKKDGFCFKLFHPLEQSIWAVKGPKGEAVGSITQPLPSSYLIIRATSESDGRCWMDALELALKCSSLLKRTMIREGKEHDLSVSSDSTHVTFYGLLRANNLHSGDNFQLNDSEIERQHFKDQDMYSDKSDKENDQEHDESDNEVMGKSEESDTDTSERQDDSYIEPEPVEPLKETTYTEQSHEELGEAGEASQTETVSEENKSLIWTLLKQVRPGMDLSKVVLPTFILEPRSFLDKLSDYYYHADFLSEAALEENPYFRLKKVVKWYLSGFYKKPKGLKKPYNPILGETFRCLWIHPRTNSKTFYIAEQVSHHPPISAFYVSNRKDGFCLSGSILAKSKFYGNSLSAILEGEARLTFLNRGEDYVMTMPYAHCKGILYGTMTLELGGTVNITCQKTGYSAILEFKLKPFLGSSDCVNQISGKLKLGKEVLATLEGHWDSEVFITDKKTDNSEVFWNPTPDIKQWRLIRHTVKFEEQGDFESEKLWQRVTRAINAKDQTEATQEKYVLEEAQRQAARDRKTKNEEWSCKLFELDPLTGEWHYKFADTRPWDPLNDMIQFEKDGVIQTKVKHRTPMVSVPKMKHKPTRQQKKVAKGYSSPEPDIQDSSGSEAQSVKPSTRRKKGIELGDIQSSIESIKQTQEEIKRNIMALRNHLVSSTPATDYFLQQKDYFIIFLLILLQVIINFMFK [OSBPL8] | 0.167 | 0.896 | 49.8 | 50.9 | -0.118 | -0.172
